Assay results as given in US20110053851A1.

Biological target: human FXa (human) (UniProt P00742)
Assay: cell-based or functional assay

Chain of UniProt P00742 (P00742 41-488 limits assumed): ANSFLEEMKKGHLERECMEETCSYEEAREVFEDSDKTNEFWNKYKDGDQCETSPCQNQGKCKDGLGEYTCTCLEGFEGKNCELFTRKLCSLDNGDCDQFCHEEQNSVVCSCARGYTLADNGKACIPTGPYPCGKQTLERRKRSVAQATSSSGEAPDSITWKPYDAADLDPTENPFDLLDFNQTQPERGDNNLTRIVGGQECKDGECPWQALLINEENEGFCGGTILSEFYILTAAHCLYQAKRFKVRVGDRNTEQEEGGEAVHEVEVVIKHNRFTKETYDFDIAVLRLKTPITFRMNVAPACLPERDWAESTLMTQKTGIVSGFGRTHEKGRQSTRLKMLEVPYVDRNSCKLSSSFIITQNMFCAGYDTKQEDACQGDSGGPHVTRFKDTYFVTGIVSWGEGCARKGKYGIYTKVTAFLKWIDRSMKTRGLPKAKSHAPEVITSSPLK

P. textilis snake venom FV showed a CT (ave) (sec), citrated plasma; Fva 10 (1/10), PL 50, Ca 50 of 23.7 s, a CT (ave) (sec), citrated plasma; Fva 10 (1/100), PL 50, Ca 50 of 54.7 s and a CT (ave) (sec), citrated plasma; Fva 25 (1/10), PL 50, Ca 50 of 19.7 s. The CT (ave) (sec), citrated plasma; Fva 25 (1/100), PL 50, Ca 50 was 41 s, the CT (ave) (sec), citrated plasma; Fva 50 (1/10), PL 0, Ca 50 was 67.5 s and the CT (ave) (sec), citrated plasma; Fva 50 (1/10), PL 50, Ca 50 was 18 s. The CT (ave) (sec), citrated plasma; Fva 50 (1/100), PL 0, Ca 50 was 90.8 s, the CT (ave) (sec), citrated plasma; Fva 50 (1/100), PL 50, Ca 50 was 31.6 s and the CT (ave) (sec), citrated plasma; Fva 50 (1/1000), PL 0, Ca 50 was greater than 300 s. The CT (ave) (sec), citrated plasma; Fva 50 (1/1000), PL 50, Ca 50 was 68.7 s, the CT (ave) (sec), citrated plasma; Fva (A280 = 1.080) 10, PL 50, Ca 50 was 15 s and the CT (ave) (sec), citrated plasma; Fva (A280 = 1.080) 25, PL 50, Ca 50 was 13.6 s. For the same substance, the CT (ave) (sec), citrated plasma; Fva (A280 = 1.080) 50, PL 0, Ca 50 was 54.3 s, the CT (ave) (sec), citrated plasma; Fva (A280 = 1.080) 50, PL 50, Ca 0 was greater than 300 s and the CT (ave) (sec), citrated plasma; Fva (A280 = 1.080) 50, PL 50, Ca 50 was 12.7 s. It also gave a Citrated Plasma Clotting Time (Sec) at FV 0.7 nM (0 nM FV: 151) of 69 s, a Citrated Plasma Clotting Time (Sec) at FV 7 nM (0 nM FV: 151) of 32 s and a Citrated Plasma Clotting Time (Sec) at FV 70 nM (0 nM FV: 151) of 18 s. The Citrated Plasma Clotting Time (Sec) at FV 700 nM (0 nM FV: 151) was 13 s, the Clotting time (sec) (1), citrated plasma; Fva 10 (1/10), PL 50, Ca 50 was 24.1 s and the Clotting time (sec) (1), citrated plasma; Fva 10 (1/100), PL 50, Ca 50 was 53.3 s. For the same substance, the Clotting time (sec) (1), citrated plasma; Fva 25 (1/10), PL 50, Ca 50 was 19.6 s, the Clotting time (sec) (1), citrated plasma; Fva 25 (1/100), PL 50, Ca 50 was 39.5 s and the Clotting time (sec) (1), citrated plasma; Fva 50 (1/10), PL 0, Ca 50 was 68.9 s. The Clotting time (sec) (1), citrated plasma; Fva 50 (1/10), PL 50, Ca 50 was 18.3 s, the Clotting time (sec) (1), citrated plasma; Fva 50 (1/100), PL 0, Ca 50 was 84.3 s and the Clotting time (sec) (1), citrated plasma; Fva 50 (1/100), PL 50, Ca 50 was 32.3 s. For the same substance, the Clotting time (sec) (1), citrated plasma; Fva 50 (1/1000), PL 0, Ca 50 was greater than 300 s, the Clotting time (sec) (1), citrated plasma; Fva 50 (1/1000), PL 50, Ca 50 was 69.7 s and the Clotting time (sec) (1), citrated plasma; Fva (A280 = 1.080) 10, PL 50, Ca 50 was 15.2 s. For the same substance, the Clotting time (sec) (1), citrated plasma; Fva (A280 = 1.080) 25, PL 50, Ca 50 was 13.3 s, the Clotting time (sec) (1), citrated plasma; Fva (A280 = 1.080) 50, PL 0, Ca 50 was 54.1 s and the Clotting time (sec) (1), citrated plasma; Fva (A280 = 1.080) 50, PL 50, Ca 0 was greater than 300 s. The Clotting time (sec) (1), citrated plasma; Fva (A280 = 1.080) 50, PL 50, Ca 50 was 12.6 s, the Clotting time (sec) (2), citrated plasma; Fva 10 (1/10), PL 50, Ca 50 was 23.4 s and the Clotting time (sec) (2), citrated plasma; Fva 10 (1/100), PL 50, Ca 50 was 56 s. For the same substance, the Clotting time (sec) (2), citrated plasma; Fva 25 (1/10), PL 50, Ca 50 was 19.8 s, the Clotting time (sec) (2), citrated plasma; Fva 25 (1/100), PL 50, Ca 50 was 42.5 s and the Clotting time (sec) (2), citrated plasma; Fva 50 (1/10), PL 0, Ca 50 was 67 s. The Clotting time (sec) (2), citrated plasma; Fva 50 (1/10), PL 50, Ca 50 was 17.6 s, the Clotting time (sec) (2), citrated plasma; Fva 50 (1/100), PL 0, Ca 50 was 97.4 s and the Clotting time (sec) (2), citrated plasma; Fva 50 (1/100), PL 50, Ca 50 was 31 s. For the same substance, the Clotting time (sec) (2), citrated plasma; Fva 50 (1/1000), PL 0, Ca 50 was greater than 300 s, the Clotting time (sec) (2), citrated plasma; Fva 50 (1/1000), PL 50, Ca 50 was 67.7 s and the Clotting time (sec) (2), citrated plasma; Fva (A280 = 1.080) 10, PL 50, Ca 50 was 14.8 s. It also gave a Clotting time (sec) (2), citrated plasma; Fva (A280 = 1.080) 25, PL 50, Ca 50 of 13.8 s, a Clotting time (sec) (2), citrated plasma; Fva (A280 = 1.080) 50, PL 0, Ca 50 of 54.5 s and a Clotting time (sec) (2), citrated plasma; Fva (A280 = 1.080) 50, PL 50, Ca 0 greater than 300 s. For the same substance, the Clotting time (sec) (2), citrated plasma; Fva (A280 = 1.080) 50, PL 50, Ca 50 was 12.8 s and the clotting time of re-calcified citrated whole blood with 20 nM APC and 280 nM snake venom FV (no APC: 505 seconds; APC alone: 1333 seconds) was 127 s.
